The values that follow come from paper PMC10830566 (2024).

For test [1], the target named is T1, endothelial protein C receptor (EPCR), extracellular region, with a C-terminal 12xHis tag (human, UniProt Q9UNN8 18-210).
T1 chain: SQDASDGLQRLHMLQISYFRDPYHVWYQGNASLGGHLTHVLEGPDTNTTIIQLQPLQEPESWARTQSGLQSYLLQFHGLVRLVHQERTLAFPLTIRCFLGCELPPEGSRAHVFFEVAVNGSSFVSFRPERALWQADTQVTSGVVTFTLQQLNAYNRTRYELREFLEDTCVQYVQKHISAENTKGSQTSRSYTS
In words: BLI.

In test [2] the target is T1, endothelial protein C receptor (EPCR), …. In words: BLI. In general terms: In BLI a coated tip is dipped into the sample, and binding shifts an interference pattern.

B1: activated protein C (APC) (enzyme)
chain 1: ANSFLEELRHSSLERECIEEICDFEEAKEIFQNVDDTLAFWSKHVDGDQCLVLPLEHPCASLCCGHGTCIDGIGSFSCDCRSGWEGRFCQREVSFLNCSLDNGGCTHYCLEEVGWRRCSCAPGYKLGDDLLQCHPAVKFPCGRPWKRMEKKRSHL
chain 2: LIDGKMTRRGDSPWQVVLLDSKKKLACGAVLIHPSWVLTAAHCMDESKKLLVRLGEYDLRRWEKWELDLDIKEVFVHPNYSKSTTDNDIALLHLAQPATLSQTIVPICLPDSGLAERELNQAGQETLVTGWGYHSSREKEAKRNRTFVLNFIKIPVVPHNECSEVMSNMVSENMLCAGILGDRQDACEGDSGGPMVASFHGTWFLVGLVSWGEGCGLLHNYGVYTKVSRYLDWIHGHIRDKEAPQKSWAP
modifications: gamma-carboxyglutamate in the Gla domain of the light chain (incl. Gla7 = precursor 49); light and heavy chains disulfide-linked; activation peptide 200-211 and Lys-Arg 198-199 removed …; chain limits taken from the UniProt features
The Kd is the equilibrium constant for the complex coming apart. Broadly, the koff is the first-order rate constant of dissociation. A low value points to a long-lived complex. Consider B1, for which binding in test [1] was put at a Kd of 67 nM. Further, the koff in test [2] stood at 0.0021 s⁻¹.
